From patent US20240415889A1

Columns and labels:
CD94/NKG2A [1] = assay: BLI
Target sequence in this assay (main, as listed by the source): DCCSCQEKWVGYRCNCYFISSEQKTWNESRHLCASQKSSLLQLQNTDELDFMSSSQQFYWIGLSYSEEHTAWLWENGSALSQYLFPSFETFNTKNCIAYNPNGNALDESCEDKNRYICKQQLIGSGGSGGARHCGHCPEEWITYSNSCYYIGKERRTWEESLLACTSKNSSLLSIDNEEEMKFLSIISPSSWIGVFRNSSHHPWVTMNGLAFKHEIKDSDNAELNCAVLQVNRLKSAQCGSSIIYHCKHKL

CD94/NKG2A [2] = assay: competitive ELISA (HLA-E tetramer); FIG. 26
Target sequence in this assay (main, as listed by the source): as above

CD94/NKG2A [3] = assay: competitive ELISA (HLA-E tetramer)
Target sequence in this assay (main, as listed by the source): as above

CD94/NKG2A [4] = assay: reported IC50; reported value

Kd (CD94/NKG2A [1]) | IC50 (CD94/NKG2A [2]) | IC50 (CD94/NKG2A [3]) | IC50 (CD94/NKG2A [4]) | Substance
4.32 nM | – | – | – | Mona analog IgG1 (LALA-PG)
– | 1 nM | 1.5 nM | 2 nM | Monalizumab
